B1: wt NGF: recombinant wild-type rat nerve growth factor (SEQ ID NO. 1) produced in COS cells (protein)
chain: SSTHPVFHMGEFSVCDSVSVWVGDKTTATDIKGKEVTVLGEVNINNSVFKQYFFETKCRAPNPVESGCRGIDSKHWSNYCTTTHTFVKALTTDDKQAAWRFIRIDTACVCVLSRKAARRG
B2: PNT-1: NT-3 with variable region V replaced from BDNF and amino terminus (residues 3-9) replaced from NGF (protein)
chain: B1 chain
B3: wt BDNF: recombinant wild-type brain-derived neurotrophic factor (SEQ ID NO. 2) produced in COS cells (protein)
chain: HSDPARRGELSVCDSISEWVTAADKKTAVDMSGGTVTVLEKVPVSKGQLKQYFYETKCNPMGYTKEGCRGIDKRHWSNQCRTTQSYVRALTMDSKKRIGWRFIRIDTSCVCTLTIKRGR

What was measured:
TrkA [1] = assay: Competitive TrkA receptor binding: displacement of 125I-NGF from rtrkA-3T3 cells; details: 125I-NGF displacement, relative binding from IC50 versus wt NGF
Method: NIH3T3 fibroblasts expressing TrkA, TrkB or TrkC were used at 2 to 1-33 10^6 cells/ml. […] All components were added at the same time and the cells were collected by centrifugation after equilibrium was reached (90-120 minutes incubation). Cell pellets were then counted in a gamma counter. […] Nonspecific binding was measured in a parallel incubation to which 300 to 1000-fold molar excess of unlabelled purified factor was added.

[2] = tested on: E8 chick sympathetic ganglia; assay: Neurite outgrowth from explanted E8 chick sympathetic ganglia; format: cell-based; details: for Biological Activity % of wild type (neurite outgrowth, sympathetic ganglia): explants of embryonic sympathetic ganglia, relative to wt NGF
Method: Fibre outgrowth was scored on a semiquantitative scale in biological units (BU) by comparison to standards obtained with purified mouse NGF, for which 1 BU is equivalent to approximately 5ng/ml. The concentration of each protein that gave 0.6 BU in this scale was determined, and used to calculate the relative activity compared to that obtained with wt NGF.

TrkB and TrkA = details: literature; cited from earlier work
[3] = tested on: dissociated E8 chick sympathetic neurons; assay: Survival of dissociated E8 chick sympathetic neurons; format: cell-based; details: 2 ng/ml
Method: (§1) Dissociated neurons from chick E8 sympathetic and nodose ganglia were preplated on plastic for 2 hr and then cultured in 96 well-plates coated with poly-L-ornithine and laminin at a density of 800-1000 cells/well. Serial dilutions of conditioned media containing equivalent amounts of recombinant proteins were added at the time of plating and neuronal survival was determined after 36-48 hr by phase contrast microscopy, scoring the number of surviving neurons in the entire well.

[4] = tested on: dissociated E8 chick nodose neurons; assay: Survival of dissociated E8 chick nodose ganglion neurons; format: cell-based; details: for Nodose neurons rescued (survival): saturating concentrations (20-50 ng/ml)
Method: as §1

TrkB [5] = assay: Competitive TrkB receptor binding: displacement of 125I-BDNF from rtrkB-3T3 cells; details: for Receptor Binding % of wild type (TrkB): rtrkB-3T3 cells, 125I-BDNF displacement, relative binding from IC50 versus wt BDNF
Method: Purified mouse NGF and BDNF were labeled with ^125 I by the lactoperoxidase method to an average specific activity of 1×10^8cpm/μg. For the labeling of BDNF, the modifications described by Rodriguez-Tebar et al. ([Rodriguez-Tebar, 1992]) were used. NIH3T3 fibroblasts expressing TrkA, TrkB or TrkC were used at 2 to 1-33 10^6 cells/ml. Steady state binding was measured in competition assays performed at 4° C. using 1.5×10^-9 M ^125 I-BDNF and serial dilutions of conditioned media containing equivalent amounts of wt or mutated NGF protein. All components were added at the same time and the cells were collected by centrifugation after equilibrium was reached (90-120 minutes incubation). Cell pellets were then counted in a gamma counter. […] Nonspecific binding was measured in a parallel incubation to which 300 to 1000-fold molar excess of unlabelled purified factor was added. All results were corrected for this nonspecific binding, which was less than 10% (for NGF) or 30% (for BDNF) of total binding. The concentration of each chimeric, mutant and wild type molecule that gave 50% binding (IC50) was determined, and relative binding was calculated using the relationship:(mutant IC50 /wild type IC50)×100.

TrkA [6] = assay: Tyrosine phosphorylation of TrkA receptors in rtrkA-3T3 cells; format: cell-based; details: 100 ng/ml
Method: (§2) Plates were incubated 15 minutes at 4° C. after which insoluble material was removed by centrifugation. Cell lysates were normalized for protein content before immunoprecipitation. […] After 2 hr at 4° C., immunocomplexes were collected with Protein A-Sepharose (Pharmacia, Sweden), washed in lysis buffer and boiled for 5 minutes before SDS/PAGE. After electrophoresis, gels were blotted to nitrocellulose membranes, reacted with anti-phosphotyrosine monoclonal antibody 4G10 (UBI, New York) and developed with the ECL Western Detection System (Amersham, UK). Appropriately exposed autoradiograms of phosphotyrosine blots were used for densitometric scanning.

TrkB [7] = assay: Tyrosine phosphorylation of TrkB receptors in rtrkB-3T3 cells; format: cell-based
Method: as §2

TrkC = assay: Tyrosine phosphorylation of TrkC receptors in Trk-expressing cells; format: cell-based; details: 100 ng/ml
Method: A confluent 10 cm plate containing about 10^7 rtrk-3T3 or rtrkB-3T3 cells was treated for 5 minutes at 37° C. with wt, chimeric or mutant factors and subsequently lysed with 1 ml of ice-cold buffer containing 1% NP40, 20 mM Tris pH 8.0, 137 mM NaCl, 2 mM EDTA, 10% glycerol, 1 mM PMSF, 0.15 U/ml aprotinin, 20 μM leupeptine and 1 mM Na orthovanadate. Plates were incubated 15 minutes at 4° C. after which insoluble material was removed by centrifugation. Cell lysates were normalized for protein content before immunoprecipitation. Trk immunoprecipitation was performed by incubating lysates with 1 μl of anti-TrkB polyclonal antiserum 443 ([Soppet, 1991]) which recognizes TrkA, TrkB and TrkC. After 2 hr at 4° C., immunocomplexes were collected with Protein A-Sepharose (Pharmacia, Sweden), washed in lysis buffer and boiled for 5 minutes before SDS/PAGE. After electrophoresis, gels were blotted to nitrocellulose membranes, reacted with anti-phosphotyrosine monoclonal antibody 4G10 (UBI, New York) and developed with the ECL Western Detection System (Amersham, UK). Appropriately exposed autoradiograms of phosphotyrosine blots were used for densitometric scanning.

| EC50 of TrkB receptor phosphorylation (TrkB [7]; dose-response, densitometric scanning of phosphotyrosine blots, rtrkB-3T3 cells) [ng/mL] | Molecule | Receptor Binding % of wild type (TrkA) (TrkA [1]) | Biological activity, neurite outgrowth from sympathetic ganglia (in words) [2] | Efficiency to mediate biological effects through TrkB and TrkA lower than BDNF or NGF (TrkB and TrkA) | Survival of dissociated sympathetic neurons (in words) [3] | Nodose neurons rescued (survival) [4] [%] | Receptor Binding % of wild type (TrkB) (TrkB [5]) | Biological Activity % of wild type (neurite outgrowth, sympathetic ganglia) [2] | Survival of nodose neurons (in words) [4] | TrkA tyrosine phosphorylation / activation (in words) (TrkA [6]) | TrkB tyrosine phosphorylation / activation (in words) (TrkB [7]; 100 ng/ml) | TrkB receptor binding (in words) (TrkB [5]) | Potency in neurite outgrowth from sympathetic ganglia lower than wild type NGF ([2]; dose-response curves) [fold] | TrkC tyrosine phosphorylation (in words) (TrkC) | Increase of nodose neuron survival compared to NT-3 ([4]; saturating concentrations) [fold] |
| --- | --- | --- | --- | --- | --- | --- | --- | --- | --- | --- | --- | --- | --- | --- | --- |
|  | wild-type NT-3: recombinant wild-type rat neurotrophin-3 (SEQ ID NO. 3) produced in COS cells [reference compound] | about 3 % of wild type | only a marginal effect | about 100 fold | no survival | 25 |  |  |  |  |  |  |  |  |  |
|  | B1 | 100 % of wild type |  |  |  |  | < 0,2 % of wild type | 100 % of wild type | failed to rescue neurons |  |  |  |  |  |  |
|  | B2 | ~50 % of wild type | efficiently stimulated neurite outgrowth |  | correlated with survival of dissociated sympathetic neurons | 45 |  |  |  | efficient tyrosine phosphorylation | efficient tyrosine phosphorylation | not changed | 15 | efficient tyrosine phosphorylation | ~2 |
| 5 | B3 | < 0,2 % of wild type |  |  |  | 40 | 100 % of wild type | < 0,2 % of wild type |  |  |  |  |  |  |  |
